Where a chain is given by its changes, count along the chain named. In names and notes the source's numbering stands.
B1: (A14E, A21G, A22(GQAP)18, A94G, A95Q, A96A, A97K^, A98P, B29R, desB30 human insulin)/(227A, 234A, 235K, 297E, 315Q, 384Q, des447 hIgG4-Fc(228-447)) … (other)
chain 1: GIVEQCCTSICSLEQLENYCGGQAPGQAPGQAPGQAPGQAPGQAPGQAPGQAPGQAPGQAPGQAPGQAPGQAPGQAPGQAPGQAPGQAPGQAPGQAKP
chain 2: FVNQHLCGSHLVEALYLVCGERGFFYTPR
chain 3: ASCPAPEAKGGPSVFLFPPKPKDTLMISRTPEVTCVVVDVSQEDPEVQFNWYVDGVEVHNAKTKPREEQFESTYRVVSVLTVLHQDWLQGKEYKCKVSNKGLPSSIEKTISKAKGQPREPQVYTLPPSQEEMTKNQVSLTCLVKGFYPSDIAVEWESQGQPENNYKTTPPVLDSDGSFFLYSRLTVDKSRWQEGNVFSCSVMHEALHNHYTQKSLSLSLG
modifications: Cys229 (EU numbering) sulphur bound to an acetyl arm of the linker; A97K N(eps) acylated by the trivalent linker 4-[bis[2-[(2-acetyl)amino]ethyl]amino]-4-oxo-butanoyl
notes: also called Ex 5.26
B2: A14E, A21G, A22(GQAPGQAPGQEP)6-GQAP, A98K^, A99P, B29R, desB30 human insulin/(227A, 234A, 235K, 297E, 315Q, 384Q, des447 hIgG4-Fc(228-447)) … (other)
chain 1: GIVEQCCTSICSLEQLENYCGGQAPGQAPGQEPGQAPGQAPGQEPGQAPGQAPGQEPGQAPGQAPGQEPGQAPGQAPGQEPGQAPGQAPGQEPGQAPKP
chain 2: FVNQHLCGSHLVEALYLVCGERGFFYTPR
chain 3: B1 chain 3
modifications: Cys229 (EU numbering) sulphur bound to an acetyl arm of the linker; A98K N(eps) acylated by the trivalent linker 4-[bis[2-[(2-acetyl)amino]ethyl]amino]-4-oxo-butanoyl
B3: (A14E, A21G, A22(GQEP)19, A98K^, A99P, B25H, B29R, desB30 human insulin)/(227A, 234A, 235K, 297E, 315Q, 384Q, des447 hIgG4-Fc(228-447)) … (other)
chain 1: GIVEQCCTSICSLEQLENYCGGQEPGQEPGQEPGQEPGQEPGQEPGQEPGQEPGQEPGQEPGQEPGQEPGQEPGQEPGQEPGQEPGQEPGQEPGQEPKP
chain 2: FVNQHLCGSHLVEALYLVCGERGFHYTPR
chain 3: B1 chain 3
modifications: Cys229 (EU numbering) sulphur bound to an acetyl arm of the linker; A98K N(eps) acylated by the trivalent linker 4-[bis[2-[(2-acetyl)amino]ethyl]amino]-4-oxo-butanoyl
notes: also called Ex 5.12
B4: A14E, A21G, A22(GQEP)12, A70K^, A71P, B25H, B29R, desB30 human insulin/(227A, 234A, 235K, 297E, 315Q, 384Q, des447 hIgG4-Fc(228-447)) … (other)
chain 1: GIVEQCCTSICSLEQLENYCGGQEPGQEPGQEPGQEPGQEPGQEPGQEPGQEPGQEPGQEPGQEPGQEPKP
chain 2: FVNQHLCGSHLVEALYLVCGERGFHYTPR
chain 3: B1 chain 3
modifications: Cys229 (EU numbering) sulphur bound to an acetyl arm of the linker; A70K N(eps) acylated by the trivalent linker 4-[bis[2-[(2-acetyl)amino]ethyl]amino]-4-oxo-butanoyl
notes: also called Ex 5.17
B5: (A14E, A21G, A22(GQAP)24, A118G, A119Q, A120A, A121K^, A122P, B29R, desB30 human insulin)/(227A, 234A, 235K, 297E, 315Q, 384Q, des447 hIgG4-Fc(228-447)) … (other)
chain 1: GIVEQCCTSICSLEQLENYCGGQAPGQAPGQAPGQAPGQAPGQAPGQAPGQAPGQAPGQAPGQAPGQAPGQAPGQAPGQAPGQAPGQAPGQAPGQAPGQAPGQAPGQAPGQAPGQAPGQAKP
chain 2: FVNQHLCGSHLVEALYLVCGERGFFYTPR
chain 3: B1 chain 3
modifications: Cys229 (EU numbering) sulphur bound to an acetyl arm of the linker; A121K N(eps) acylated by the trivalent linker 3,5-bis[(2-acetyl)amino]benzoyl
notes: also called Ex 5.29
B6: A14E, A21G, A22(GQAPGQAPGQEP)6-GQAP, A98K^, A99P, B3Q, B25H, B29R, desB30 human insulin/(227A, 234A, 235K, 297E, 315Q, 384Q, des447 hIgG4-Fc(228-447)) … (other)
chain 1: B2 chain 1
chain 2: FVQQHLCGSHLVEALYLVCGERGFHYTPR
chain 3: B1 chain 3
modifications: Cys229 (EU numbering) sulphur bound to an acetyl arm of the linker; A98K N(eps) acylated by the trivalent linker 4-[bis[2-[(2-acetyl)amino]ethyl]amino]-4-oxo-butanoyl
notes: also called Ex 5.13
B7: (A14A, A21G, A22(GQAP)18, A94G, A95Q, A96A, A97K^, A98P, B29R, desB30 human insulin)/(227A, 234A, 235K, 297E, 315Q, 384Q, des447 hIgG4-Fc(228-447)) … (other)
chain 1: B1 chain 1 with E14A
chain 2: FVNQHLCGSHLVEALYLVCGERGFFYTPR
chain 3: B1 chain 3
modifications: Cys229 (EU numbering) sulphur bound to an acetyl arm of the linker; A97K N(eps) acylated by the trivalent linker 4-[bis[2-[(2-acetyl)amino]ethyl]amino]-4-oxo-butanoyl
notes: also called Ex 5.25
B8: A14E, A21G, A22(GQAPGQAPGQEP)6-GQAP, A98K^, A99P, B3Q, B25H, B29R, desB30 human insulin/(227A, 234A, 235K, 297E, 315Q, 384Q, des447 hIgG4-Fc(228-447)) … (other)
chain 1: B2 chain 1
chain 2: FVQQHLCGSHLVEALYLVCGERGFHYTPR
chain 3: B1 chain 3
modifications: Cys229 (EU numbering) sulphur bound to an acetyl arm of the linker; A98K N(eps) acylated by the trivalent linker 4-[bis[2-[(2-acetyl)amino]ethyl]carbamoylamino]butanoyl
notes: also called Ex 5.24
B9: (A14E, A21G, A22(GQEP)19, 98K^, A99P, B25H, B29R, desB30 human insulin)/(226A, 227G, 228P, 234A, 235K, des447 hIgG4-Fc(228-447)) … (other)
chain 1: B3 chain 1
chain 2: FVNQHLCGSHLVEALYLVCGERGFHYTPR
chain 3: AGPCPAPEAKGGPSVFLFPPKPKDTLMISRTPEVTCVVVDVSQEDPEVQFNWYVDGVEVHNAKTKPREEQFNSTYRVVSVLTVLHQDWLNGKEYKCKVSNKGLPSSIEKTISKAKGQPREPQVYTLPPSQEEMTKNQVSLTCLVKGFYPSDIAVEWESNGQPENNYKTTPPVLDSDGSFFLYSRLTVDKSRWQEGNVFSCSVMHEALHNHYTQKSLSLSLG
modifications: Cys229 (EU numbering) sulphur bound to an acetyl arm of the linker; A98K N(eps) acylated by the trivalent linker 3,5-bis[(2-acetyl)amino]benzoyl
B10: A14E, A21G, A22(GQEP)3, A34G, A35Q, A36E, A37K^, A38P, B25H, B29R, desB30 human insulin/(227A, 234A, 235K hIgG4-Fc(228-447)) … (other)
chain 1: GIVEQCCTSICSLEQLENYCGGQEPGQEPGQEPGQEKP
chain 2: FVNQHLCGSHLVEALYLVCGERGFHYTPR
chain 3: ASCPAPEAKGGPSVFLFPPKPKDTLMISRTPEVTCVVVDVSQEDPEVQFNWYVDGVEVHNAKTKPREEQFNSTYRVVSVLTVLHQDWLNGKEYKCKVSNKGLPSSIEKTISKAKGQPREPQVYTLPPSQEEMTKNQVSLTCLVKGFYPSDIAVEWESNGQPENNYKTTPPVLDSDGSFFLYSRLTVDKSRWQEGNVFSCSVMHEALHNHYTQKSLSLSLGK
modifications: Cys229 (EU numbering) sulphur bound to an acetyl arm of the linker; A37K N(eps) acylated by the trivalent linker 4-[bis[2-[(2-acetyl)amino]ethyl]amino]-4-oxo-butanoyl
notes: also called Ex 5.10
B11: A14E, A21G, A22(GQEP)19, A98K^, A99P, B3Q, B25H, B29R, desB30 human insulin/(227A, 234A, 235K hIgG4-Fc(228-447)) … (other)
chain 1: B3 chain 1
chain 2: FVQQHLCGSHLVEALYLVCGERGFHYTPR
chain 3: B10 chain 3
modifications: Cys229 (EU numbering) sulphur bound to an acetyl arm of the linker; A98K N(eps) acylated by the trivalent linker 4-[bis[2-[(2-acetyl)amino]ethyl]amino]-4-oxo-butanoyl
notes: also called Ex 5.6
B12: (A1(N(alpha)acetyl), A14E, A21G, A22(GQAP)19, A98K^, A99P, B1(N(alpha)acetyl), B25H, B29R, desB30 human insulin)/(227A, 234A, 235K, 297E, 315Q, 384Q, des447 … (other)
chain 1: B2 chain 1 with E32A, E44A, E56A, E68A, E80A, E92A
chain 2: FVNQHLCGSHLVEALYLVCGERGFHYTPR
chain 3: B1 chain 3
modifications: Cys229 (EU numbering) sulphur bound to an acetyl arm of the linker; B1 N(alpha)-acetyl; A1 N(alpha)-acetyl; A98K N(eps) acylated by the trivalent linker 4-[bis[2-[(2-acetyl)amino]ethyl]amino]-4-oxo-butanoyl
notes: Chemical insulin-Fc conjugate; also called Ex 5.27

molecular target: insulin receptor of isolated rat adipocytes (rat, UniProt P15127 27-1383); assay: cell-based or functional assay
Sequence (P15127 27-1383): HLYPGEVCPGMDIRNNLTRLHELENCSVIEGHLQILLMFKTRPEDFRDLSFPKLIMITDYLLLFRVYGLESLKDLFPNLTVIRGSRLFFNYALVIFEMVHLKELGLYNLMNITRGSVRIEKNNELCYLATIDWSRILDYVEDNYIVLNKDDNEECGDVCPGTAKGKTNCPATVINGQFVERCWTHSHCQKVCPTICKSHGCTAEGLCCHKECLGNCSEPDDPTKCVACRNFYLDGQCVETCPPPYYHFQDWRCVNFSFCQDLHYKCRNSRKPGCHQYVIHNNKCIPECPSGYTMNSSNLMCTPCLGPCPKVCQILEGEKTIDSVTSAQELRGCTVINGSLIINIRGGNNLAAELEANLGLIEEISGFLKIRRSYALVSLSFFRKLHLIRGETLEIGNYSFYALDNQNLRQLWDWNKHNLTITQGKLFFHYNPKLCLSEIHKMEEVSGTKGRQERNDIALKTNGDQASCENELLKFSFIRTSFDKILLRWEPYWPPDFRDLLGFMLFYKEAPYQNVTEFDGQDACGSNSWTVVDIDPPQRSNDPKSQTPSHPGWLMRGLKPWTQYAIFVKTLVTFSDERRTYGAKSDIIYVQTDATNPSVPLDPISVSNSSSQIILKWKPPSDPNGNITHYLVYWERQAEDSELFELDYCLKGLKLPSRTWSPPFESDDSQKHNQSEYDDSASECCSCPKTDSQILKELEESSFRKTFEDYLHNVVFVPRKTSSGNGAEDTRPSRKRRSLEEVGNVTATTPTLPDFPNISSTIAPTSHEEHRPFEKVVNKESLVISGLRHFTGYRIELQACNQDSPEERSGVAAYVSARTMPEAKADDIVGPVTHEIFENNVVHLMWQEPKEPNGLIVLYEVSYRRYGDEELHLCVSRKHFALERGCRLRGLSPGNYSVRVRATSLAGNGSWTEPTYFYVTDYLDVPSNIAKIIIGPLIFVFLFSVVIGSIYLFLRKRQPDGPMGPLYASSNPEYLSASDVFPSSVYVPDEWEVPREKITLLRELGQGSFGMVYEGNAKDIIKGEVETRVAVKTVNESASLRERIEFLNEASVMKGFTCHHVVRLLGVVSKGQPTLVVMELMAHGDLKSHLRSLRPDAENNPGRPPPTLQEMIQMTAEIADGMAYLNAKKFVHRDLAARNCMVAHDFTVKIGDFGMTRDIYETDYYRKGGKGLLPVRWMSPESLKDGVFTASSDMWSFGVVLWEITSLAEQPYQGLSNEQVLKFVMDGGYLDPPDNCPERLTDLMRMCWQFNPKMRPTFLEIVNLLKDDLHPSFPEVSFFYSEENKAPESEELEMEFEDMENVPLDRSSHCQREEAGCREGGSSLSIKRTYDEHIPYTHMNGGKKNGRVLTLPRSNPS

| Lipogenesis in rat adipocytes [Potency (%)] Mean Value | Binder |
| --- | --- |
| 3.23 % of human insulin | B1 |
| 3.02 % of human insulin | B2 |
| 2.35 % of human insulin | B3 |
| 4.39 % of human insulin | B4 |
| 2.64 % of human insulin | B5 |
| 3.07 % of human insulin | B6 |
| 2.08 % of human insulin | B7 |
| 3.83 % of human insulin | B8 |

molecular target: insulin receptor A (UniProt P06213-2 28-1370, limits assumed); assay: insulin receptor binding assay as in Vienberg et al. 2011; relative to human insulin on insulin receptor A (100%)
Sequence (P06213 other isoform, or with tags, fused parts or gaps limits assumed): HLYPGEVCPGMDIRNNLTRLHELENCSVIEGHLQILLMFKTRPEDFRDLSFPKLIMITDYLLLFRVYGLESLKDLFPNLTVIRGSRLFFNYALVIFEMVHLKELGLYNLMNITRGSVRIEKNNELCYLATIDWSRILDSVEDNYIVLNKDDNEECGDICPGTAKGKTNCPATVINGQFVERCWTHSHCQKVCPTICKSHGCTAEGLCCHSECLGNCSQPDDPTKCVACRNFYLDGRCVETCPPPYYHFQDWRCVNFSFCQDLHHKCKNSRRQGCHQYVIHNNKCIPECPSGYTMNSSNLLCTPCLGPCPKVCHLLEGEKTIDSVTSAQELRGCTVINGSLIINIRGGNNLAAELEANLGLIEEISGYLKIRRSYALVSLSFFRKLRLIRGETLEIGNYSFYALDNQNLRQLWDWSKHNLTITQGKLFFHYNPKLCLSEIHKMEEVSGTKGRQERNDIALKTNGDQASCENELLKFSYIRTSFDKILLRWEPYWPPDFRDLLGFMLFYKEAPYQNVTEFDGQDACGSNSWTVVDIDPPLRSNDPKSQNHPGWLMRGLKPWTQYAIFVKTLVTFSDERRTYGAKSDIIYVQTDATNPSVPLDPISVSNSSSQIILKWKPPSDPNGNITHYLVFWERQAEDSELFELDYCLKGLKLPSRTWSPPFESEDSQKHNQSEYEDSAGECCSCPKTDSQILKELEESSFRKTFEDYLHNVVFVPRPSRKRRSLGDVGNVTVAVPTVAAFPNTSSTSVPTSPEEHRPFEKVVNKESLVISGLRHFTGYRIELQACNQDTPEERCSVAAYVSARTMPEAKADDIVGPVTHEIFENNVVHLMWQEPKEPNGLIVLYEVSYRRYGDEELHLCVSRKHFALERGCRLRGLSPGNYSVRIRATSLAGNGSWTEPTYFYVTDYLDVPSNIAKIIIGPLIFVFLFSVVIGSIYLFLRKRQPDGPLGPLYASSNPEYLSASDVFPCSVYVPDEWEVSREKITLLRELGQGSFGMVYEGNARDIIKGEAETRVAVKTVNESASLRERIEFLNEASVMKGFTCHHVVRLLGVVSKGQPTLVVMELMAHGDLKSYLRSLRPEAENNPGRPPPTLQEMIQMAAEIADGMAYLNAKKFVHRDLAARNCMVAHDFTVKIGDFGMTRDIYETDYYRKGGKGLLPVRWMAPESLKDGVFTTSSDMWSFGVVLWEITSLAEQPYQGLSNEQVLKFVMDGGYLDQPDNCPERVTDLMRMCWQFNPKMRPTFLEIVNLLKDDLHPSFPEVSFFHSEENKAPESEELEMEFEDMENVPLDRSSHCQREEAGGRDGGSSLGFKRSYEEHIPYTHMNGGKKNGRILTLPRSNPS

| Insulin receptor affinity [IC50 relative to HI (%)] | Binder |
| --- | --- |
| 3.85% | B9 |
| 2.47% | B10 |
| 5.07% | B11 |
| 3.95% | B1 |
| 1.07% | B12 |
| 4% | B2 |
| 1.85% | B3 |
| 3.98% | B4 |
| 3.06% | B5 |
| 5.55% | B6 |
| 4.49% | B7 |
| 4.6% | B8 |

Reference: patent US20200261595A1 (Novo Nordisk, published 2020)
